# Source: the DeepSol protein solubility set
# Assay: soluble on expression in E. coli; label from the status in PepcDB or PDB records
row,Sequence,soluble on expression in E. coli
1,QDSKVFDPFLAAITPEIMPVKGKLAEKALPLIDQQLQGQPGSTVLLVSDGVNPATIKQYQAYFAGKPYQLLILAAGNTDIVSNNPMDLDSLQKLASQTNGRLVEVTVDNSDIEQLNRYVERNMQLNGESSMPWKD,not soluble
2,MAQVRKAHPKDLAAIARLSHQTLFLGREGPKVFPSETLWGALFVAPYLEAGCCNLVAEEEGRVVGYILGACADRPLALAFAKRLLWALPRLLLGRFGPPLPHLRYLLRLLRYPGPKAPKDRYPAHLHIAVDPEAQGHGVGKALLAAFLKCLREKGVPGVQLATTRANRAARGLYRAMGFRVYAKRASPFWAPYLGRPLIHEVWVRDLG,soluble
3,MSTEIKTLKPQAVWEYFYDLTQIPRPTGQMDEVTKYVFDFGKRLGLETEQDEVGNVIIRKPATPGMENKPIVTLQSHLDMVPQKNSDIDHDFTKDPIDAYIDGEWVKARG,not soluble
4,MAETQFTRFPFQPFIIEAIKTLRFYKPTEIQERIIPGALRGESMVGQSQTGTGKTHAYLLPIMEKIKPERAEVQAVITAPTRELATQIYHETLKITKFCPKDRMIVARCLIGGTDKQKALEKLNVQPHIVIGTPGRINDFIREQALDVHTAHILVVDEADLMLDMGFITDVDQIAARMPKDLQMLVFSATIPEKLKPFLKKYMENPTFVHVLEHHHHHH,soluble
5,MKTYSEARARLRWYQGRYIDFDGWYGYQCADLAVDYIYWLLEIRMWGNAKDAINNDFKNMATVYENTPSFVPQIGDVAVFTKGIYKQYGHIGLVFNGGNTNQFLILEQNYDGNANTPAKLRWDNYYGCTHFIRPKYKSEGLMNKITNKVKPPAQKAVGKSASKITVGSKAPYNLKWSKGAYFNAKIDGLGATSATRYGDNRTNYRFDVGQAVYAPGTLIYVFEIIDGWCRIYWNNHNEWIWHERLIVKEVFLEHHHHHH,not soluble
6,MGSDKIHHHHHHMITNTHLLISYIVYKNLYNNFNFKLDMAAFALGNIKPDFINKEIKCSHTLNESLDSLIEYSNKLVKYNNSIRKFSLALGIVCHYICDYFCIYHRDGNEKKGILEHLIYEVKLDSNFTMMFLKGKLNYFGCRDYGGSIKKIIFNIEKEYKLEEKDFKRDIKYALFAAIESSKFIVYSSKLYGN,not soluble
7,MKLLLLAVCVIGFVACYEVVPRASALRPRGDVRRSPLPSLSAYAPFAKSLRPASTGIRRAPAVVTLPAQKANRSVKRAPAKPLPMTLPLLPPLLPLPQFIPVPVPVLSAEGLPTLPTLAPHTFPTFTPIPGMPTMPALTMPPSFQRLLGITTTTMKPAEKAMETVQTEESDNDTTSEARAHSAPTYSKDLNTIRSRLSKFVRGSEKKVTKAEDNADWIVPFH,not soluble
8,SKIFDFVKPGVITGDDVQKVFQVAKENNFALPAVNCVGTDSINAVLETAAKVKAPVIVQFSNGGASFIAGKGVKSDVPQGAAILGAISGAHHVHQMAEHYGVPVILHTDHCAKKLLPWIDGLLDAGEKHFAATGKPLFSSHMIDLSEESLQENIEICSKYLERMSKIGMTLEIELGCTGGEEDGVDNSHMDASALYTQPEDVDYAYTELSKISPRFTIAASFGNVHGVYKAGNVVLTPTILRDSQEYVSKKHNLPHNSLNFVFHGGSGSTAQEIKDSVSYGVVKMNIDTDTQWATWEGVLNYYKANEAYLQGQLGNPKGEDQPNKKYYDPRVWLRAGQTSMIARLEKAFQELNAIDVL,soluble
9,TNRVADLTIYIIRQGVLDRRYLGEIERLYTENKFTNMCLVLNDVSYSGSRGTYGYGYGYGYGNKEYGKQGKKLRRRSAKKTKKFKIGPMKKS,not soluble
10,MSLKIIDFRLRPPAMGFLNARIYTRPDIRNRFTRQLGFEPAPSAEEKSLELMFEEMAAAGIEQGVCVGRNSSVLGSVSNADVAAVAKAYPDKFHPVGSIEAATRKEAMAQMQEILDLGIRIVNLEPGVWATPMHVDDRRLYPLYAFCEDNGIPVIMMTGGNAGPDITYTNPEHIDRVLGDFPDLTVVSSHGNWPWVQEIIHVAFRRPNLYLSPDMYLYNLPGHADFIQAANSFLADRMLFGTAYPMCPLKEYTEWFLTLPIKPDAMEKILHGNAERLLAQAGREGHHHHHH,soluble
11,MSLGELLFNRSFENTKPVSESNSWYTCYRGDVKEAKWWHSGYEEPKWYLLADGRKEEKLPLIFNNYWPSAHGKYFLQIDNRKKQIPTLLVQERIYIEKGKGYTVSGLFSSGGYLSEEKYSKESVPVTIAIYKEGDFHTPLSKTELAVNTNQFILYSSSLDATEYEGWCTYTIEVPAGGCVGIDLLSLMADDVIKGWKRESVERIKNELRPRTMRMPGGCFTSLYDWRSGIGPREERPVSYDTWWGCELLNDVGTFELVDLCEAVGAEPFFCVPVMFNNEYSAADWVDFCNNPTNAQRIAYGRTKPLNVKYWELENEPYRRFDAVTYANRCVDFAKAMKAKDPSIKIAVGNYWLFNKKFKEMLEIVGPYVDLITNRGGTPEEMRADIVILDAYNKAHGTDIKLCHTEFRAPVTRNEGNTDGLNQKDTGGEETLFNASIRWGFAMNMVEQYIAYQNMGGSFFTANYTNLSDGWGECLINTPKEGTYLNAPGVAFALLNSLDIAYPQIIEQEKENQDIVIQAAWNKRRDKLTLVVLNFSQNTQPCKIDFSQIKKSFRVRKGMKIAPQSDLSFNTLQHPEEVKVEEGHHHHHH,soluble
12,MKKFDVAIVGGGLAGLTASIYLAKAGRKVIVLEKSSRFGGRGMTINKNGICMNLGAHALYRGGAAFLTFNELGMNLPGGIPSTKAHGIWKGDIFTIPTDFRSILSTPLLSWSAKVQFSRLMILLGNLDVGEVPKMSLTTWAEHEIKDPMVRNIFYALCRTTTYTFAPTIQLASSVLKQIQLSIKEGVFYVDGGWETIITKLRDIANHVGVQFLSKKHVLEIEHYEDKQRIYCFDDEVFEVGTVIVTTPPKEACNIIKGAEGTSLQRWSEQSIPVTVTALDIGLRRLPNPTHQFALGLDQPIFFTNQSRAAKLSDDGSIAVSLIKYQNPALEMKHIHEDKGQLESTMDLLHPNWKREVVAQQYLPTIKVVYDFPHINRVETPGPNIPEMPGVYVAGDWAGHDEILADAAVASGKRAALHILKQLESEAVHHGNGAIILEHHHHHH,not soluble
13,MAHHHHHHGMTRTRSGSLAAGGLNWASLPLKLFAGGNAKFWHPADIDFTRDRADWEKLSDDERDYATRLCTQFIAGEEAVTEDIQPFMSAMRAEGRLADEMYLTQFAFEEAKHTQVFRMWLDAVGISEDLHRYLDDLPAYRQIFYAELPECLNALSADPSPAAQVRASVTYNHIVEGMLALTGYYAWHKICVERAILPGMQELVRRIGDDERRHMAWGTFTCRRHVAADDANWTVFETRMNELIPLALRLIEEGFALYGDQPPFDLSKDDFLQYSTDKGMRRFGTISNARGRPVAEIDVDYSPAQLEDTFADEDRRTLAAASA,soluble
14,MGSSHHHHHHSSGRENKYFQGHMRNVALITGITGQDGSYLAEFLLEKGYEVHGIVRRSSSFNTGRIEHLYKNPQAHIEGNMKLHYGDLTDSTCLVKIINEVKPTEIYNLGAQSHVKISFDLAEYTADVDGVGTLRLLDAVKTCGLINSVKFYQASTSELYGKVQEIPQKETTPFYPRSPYGAAKLYAYWIVVNFREAYNLFAVNGILFNHESPRRGANFVTRKISRSVAKIYLGQLECFSLGNLDAKRDWGHAKDYVEAMWLMLQNDEPEDFVIATGEVHSVREFVEKSFLHIGKTIVWEGKNENEVGRCKETGKVHVTVDLKYYRPTEVDFLQGDCTKAKQKLNWKPRVAFDELVREMVHADVELMRTNPNAGS,soluble
15,MHLSSSLLLVAAALFALPDGTFECATNGLCGYQPSCAAYSQPRPSCGCASSYGCGSYGCYRLRARGAKSYQPKRGRSRVTVGGSSSEEAREVLRQRMAMERVRRKEQLTSSEELDLVSPSVLRNSKSEQPINPDRAFYECCIDRKLPDACLSKCSFGAFTKPTLQAMYFKQDPCPLDAMKEMQFCAAQGRDHRDCCARNGVTTTLAGPKCLSFCDQRLGRNQQLDMSYVPCFDRFESMKSCFWHDMTRYYKRV,not soluble
16,YDSEVIEYAKEQENIISKLEYRVYKHDDGRSVNRQDLMRDYARVLYSSSFRRLQGKMQLLGVDASKFNRNRLTHSLEVAQIARSIAYDLELNHTVVAETASLAHDIGNPPFGHYGEVVLNDLSLACGGYEGNAQAFRILRTLEKKHYAYPGLNLNVRTLMAITKYFFNKHQNNKKFLYDADYEFLKTELDSKGVTVTKSIDAEIMDLADEIAYAAHDLEDALSFGMISLGEIVHEFSISDKFKDAYPTMTDIAKEAQNVAMKASRSGTSEEYAIVLKKELTSMIVNILCSDIGLVDGCLGYKRHAKLAEGLKKLLFKAILRKKDIQLYERRGEQIIRGLFEVYSDEKYNKDNMLLPPELRAINDCKTRLVTDYISGMMDSYAAQEYEKYFGKGSADKLYFK,soluble
17,MGSDKIHHHHHHMTIYSPDTINFNGVNGDRYWFDEPFPYTGVGDIDERLSGFPVAVFLPHHRPRQETPLVIGLQGMCAPYGWNAFIVPTLTEMGIAVALFDPPLSGERSLVRTSTTLVQNEIKPLIDRGIPFDTALFLSIFRTTARDISKIREFCGDRYGLTDSRLALFGVSMGVLLSAYAFTANSLGDRLLGTIGHADLPSFAKSWGRPFLPDLAASPLGGLAESLLQRLQPDLAPLFQLLRLTKNLKYQDEYAWDCNPMNYIQQVDSHRRVRFLVGANDSIVKIKDARACAQKFPDGDCYVVPGMGHGTRQSGVSFVDHVRYFLATQLGDWCG,not soluble
18,MSLRIAIVGAGALGLYYGALLQRSGEDVHFLLRRDYEAIAGNGLKVFSINGDFTLPHVKGYRAPEEIGPMDLVLVGLKTFANSRYEELIRPLVEEGTQILTLQNGLGNEEALATLFGAERIIGGVAFLCSNRGEPGEVHHLGAGRIILGEFLPRDTGRIEELAAMFRQAGVDCRTTDDLKRARWEKLVWNIPFNGLCALLQQPVNLILARDVSRKLVRGIMLEVIAGANAQGLATFIADGYVDDMLEFTDAMGEYKPSMEIDREEGRPLEIAAIFRTPLAYGAREGIAMPRVEMLATLLEQATGEGHHHHHH,soluble
19,MKIAIVGSGNGAVTAAVDMVSKGHDVKLYCRNQSISKFQNAIEKGGFDFNNEGDERFVKFTDISDDMEYVLKDAEIVQVIIPSSYIEYYADVMAEHVTDNQLIFFNMAAAMGSIRFMNVLEDRHIETKPQLAEANTLTYGTRVDFENAAVDLSLNVRRIFFSTYDRSCLNDCYDKVSSIYDHLVKEESLIKTNLENGNPEVHPGPTLLNVGRIDYAGEFALYKEGITKHTVRLLHAIELERLNLGRRLGFELSTAKESRIERGYLERDKEDEPLNRLFNTSPVFSQIPGPNHVESRYLTEDIAYGLVLWSSLGRVIDVPTPNIDAVIVIASTILERDFFEEGLTVEEIGLDKLDLEKYLK,not soluble
20,MTKKVGIVDTTFARVDMASIAIKKLKELSPNIKIIRKTVPGIKDLPVACKKLLEEEGCDIVMALGMPGKAEKDKVCAHEASLGLMLAQLMTNKHIIEVFVHEDEAKDDKELDWLAKRRAEEHAENVYYLLFKPEYLTRMAGKGLRQGFEDAGPARE,soluble
21,MGSDKIHHHHHHMTIQKHFPTVEMADIHFELIGGLSSQSWRIRGPGIEWLARRQSPVERKMGVDRQREFALLRQMSAVGLAPRPLLWRDGWLIVEWVPGRIATSDEFLMMLANGEVARVLSQLHRQPRSGHPLNFKILFAQHWQLMDPCRRSPALLRAHHHFQRAALPTPLALVPLHLDVHAENLLITPQGTMLIDWEYASDGDIAFELAFIVRASQMDSVAQTYFLQSYQRHRRGFSVSRLQQQMMQWFPWVDYLVLMWFEVRWQQTKNLEFLAEIPALRHRLQLG,not soluble
